Laboratory results taken from publication PMC9740503, “[^68Ga]Ga-DATA^5m-LM4, a PET Radiotracer in the Diagnosis of SST2R-Positive Tumors: Preclinical and First Clinical Results” (International Journal of Molecular Sciences, 2022).
Like-named read-outs stand apart in the source and are kept apart here. One block for each compound: values may come before it. Positions of bridges follow the written chain, without caps; N, C: chain ends. Non-standard residues stand in square brackets, D forms with d. Residues, ends and D or L forms follow the SMILES beside them. *: point of attachment. DOTA = O=C(O)CN1CCN(CC(=O)O)CCN(CC(=O)*)CCN(CC(=O)O)CC1; X1 = CN(CC(=O)O)C1(CCCCC(=O)*)CN(CC(=O)O)CCN(CC(=O)O)C1; dPhe(4-NHCONH2) = NC(=O)Nc1ccc(C[C@@H](N)C(=O)O)cc1; Phe(4-Cl) = N[C@@H](Cc1ccc(Cl)cc1)C(=O)O; 4Pal = N[C@@H](Cc1ccncc1)C(=O)O

Columns and labels:
SST2R = conditions: against the same radioligand; read-out: IC50, SST2R autoradiography; cited from earlier work
From the text: On the other hand, by changing the metal to Lu the IC50 determined for [^natL ...

human SST2R = biological target: T1, human SST2R (Homo sapiens, UniProt P30874); assay: Competition binding against [125I-Tyr25]LTT-SS28 in HEK293-SST2R cell membranes; conditions: HEK293-SST2R cell membrane homogenates; 1 h at 22 °C; 50 mM HEPES pH 7.4 binding buffer; mean ± sd, n = 3 independent experiments in triplicate; read-out: IC50, displacement of [125I-Tyr25]LTT-SS28 from SST2R binding sites
T1 construct: expressed in transfected cells
T1 sequence (P30874 whole entry): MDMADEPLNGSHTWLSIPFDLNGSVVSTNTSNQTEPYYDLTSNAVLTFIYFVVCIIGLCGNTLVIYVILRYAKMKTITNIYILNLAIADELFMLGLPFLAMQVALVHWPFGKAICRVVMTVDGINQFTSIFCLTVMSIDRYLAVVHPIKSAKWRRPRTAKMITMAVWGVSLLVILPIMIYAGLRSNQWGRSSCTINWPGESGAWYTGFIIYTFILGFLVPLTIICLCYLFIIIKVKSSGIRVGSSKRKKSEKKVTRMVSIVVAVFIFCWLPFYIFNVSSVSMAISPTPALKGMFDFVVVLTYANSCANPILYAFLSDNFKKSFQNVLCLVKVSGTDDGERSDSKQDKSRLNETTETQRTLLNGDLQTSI
Protocol: The binding affinities of DATA^5m-LM4 and [^natGa]Ga-DATA^5m-LM4 for the human SST2R were determined via competition binding assays against [^125I-Tyr^25]LTT-SS28 in freshly harvested HEK293-SST2R cell membranes. As depicted in Figure 2, DATA^5m-LM4 as well as its [^natGa]Ga-tagged version displaced [^125I-Tyr^25]LTT-SS28 from SST2R-binding sites in the membrane homogenates in a monophasic and dose-dependent manner.
Competition binding assays for DATA^5m-LM4 and [^natGa]Ga-DATA^5m-LM4 were performed in freshly harvested HEK293-SST2R cell membranes against [^125I-Tyr^25]LTT-SS28 [30, 33]. […] Filters were collected and their activity measured in a γ-counter (automated multi-sample well-type instrument with a NaI(Tl) 3″ crystal, Canberra Packard Cobra^TM Quantum U5003/1, Auto-Gamma® counting system). The half-maximal inhibitory concentration (IC50) values were calculated by nonlinear regression for a one-site model applying the PRISM^TM 6.0 GraphPad software (San Diego, CA, USA) and represent mean IC50 ± sd values from at least three independent experiments were performed in triplicate.

[1] = Biodistribution in SCID mice bearing twin HEK293-SST2R and wtHEK293 tumors; type: in vivo; conditions: male, mouse, iv, 10 pmol, total radioactivity
Protocol: Inocula containing a suspension of freshly-harvested HEK293-SST2R cells (150 μL, 1.2 × 10^7cells in normal saline) and wtHEK293 cells (150 μL, 0.6 × 10^7 cells in normal saline) were subcutaneously (sc) injected in the right and left flanks of male SCID mice (21.5–25.0 g body weight, six weeks of age on arrival day; NCSR “Demokritos” Animal House, Athens, Greece). Mice were kept under aseptic conditions for about 2 weeks until well-palpable tumors (300–600 mg) were grown at the inoculation sites. […] Samples of blood and tissues of interest were collected along with implanted tumors, weighted and counted in the gamma counter. Biodistribution results were calculated as percent of the injected activity per gram tissue (%IA/g) with the aid of appropriate standards of the administered dose and the Microsoft Excel program. Results are presented as mean %IA/g values ± sd, n = 4 per time point, as determined by the PRISM^TM 6.0 GraphPad software (San Diego, CA, USA). […]

HEK293-SST2R cells = assay: Radioligand uptake/internalization in HEK293-SST2R cells; type: cell-based, human; conditions: 1 h at 37 °C, 0.5 pmol total peptide, specific, % of total added activity, mean ± sd, 3 independent experiments in triplicate
Protocol: This distinct cell distribution pattern between [^67Ga]Ga-DATA^5m-LM4 and [^67Ga]Ga-DOTA-TOC is consistent with an SST2R antagonist and agonist behavior, respectively. […] Cells were seeded in poly-lysine coated six-well plates (1 × 10^6/well) and grew to confluent monolayers overnight. At the day of the experiment, plates were placed on ice and rinsed twice with chilled internalization medium (DMEM Glutamax-I supplemented by 1% (v/v) FBS). […] In the upper three wells internalization medium was added (150 μL, total) and in the lower three a solution of TATE to a final concentration of 1 μM (150 μL, non-specific). After 60 min incubation at 37 °C, the medium was removed and cells were washed with ice-cold 0.5% BSA-PBS. Cells were incubated (2 × 5 min) at ambient temperature in acid wash buffer (50 mM glycine in 0.1 M NaCl, pH 2.8) and supernatants were collected (membrane-bound fraction). After rinsing with 0.5% BSA-PBS, the cells were lysed by treatment with 1 N NaOH; the lysates were collected (internalized fraction). Samples were measured in the γ-counter and cell-associated/internalized radioactivity vs. total added activity per well was calculated. Specific values were obtained by subtracting values in the presence of excess TATE (lower well triplicates) from those without the addition of blocker (upper well triplicates). […]

Compound: DOTA-DPhe-c[DCys-Tyr-DAph(Cbm)-Lys-Thr-Cys]-DTyr-NH2 (disulfide) [DOTA-LM3, DOTA-derivatized SST2R antagonist LM3]
- IC50 (SST2R): 1.4 ± 0.5 nM

- IC50 (human SST2R): 1.61 ± 0.32 nM
Compound: [^natGa]Ga-DATA^5m-LM4: DATA5m-LM4 tagged with natural gallium (DATA5m-[Phe(4-Cl)][dC][4Pal][dPhe(4-NHCONH2)]KTC[dY]-NH2; disulfide 2-7; also: complexed with natural gallium)

Compound: C[C@@H](O)[C@@H]1NC(=O)[C@H](CCCCN)NC(=O)[C@@H](Cc2ccc(NC(N)=O)cc2)NC(=O)[C@H](Cc2ccc(O)cc2)NC(=O)[C@H](NC(=O)[C@H](Cc2ccc(Cl)cc2)NC(=O)CN2CCN(CC(=O)O)CCN(CC(=O)O)CCN(CC(=O)O)CC2)CSSC[C@@H](C(=O)N[C@H](Cc2ccc(O)cc2)C(N)=O)NC1=O [[^67Ga]Ga-DOTA-LM3, metal not drawn] ({DOTA}-[Phe(4-Cl)][dC]Y[dPhe(4-NHCONH2)]KTC[dY]-NH2; disulfide 2-7)
- tissue uptake at 1 h ([1]; HEK293-SST2R tumor (Tu+), 1 h pi, iv 10 pmol total peptide, mean ± sd, n = 4, read-out: Tu+ (HEK293-SST2R tumor) uptake): 25.3 ± 6.23 %ID/g
- tissue uptake at 4 h ([1]; HEK293-SST2R tumor (Tu+), 4 h pi, iv 10 pmol total peptide, mean ± sd, n = 4, read-out: Tu+ (HEK293-SST2R tumor) uptake): 16.8 ± 1.22 %ID/g
- tissue uptake at 1 h ([1]; in vivo, Blood uptake): 1.18 ± 0.03 %ID/g
- tissue uptake at 4 h ([1]; in vivo, Blood uptake): 1.73 ± 0.47 %ID/g
- tissue uptake at 1 h ([1]; in vivo, Femur uptake): 1.39 ± 0.39 %ID/g
- tissue uptake at 4 h ([1]; in vivo, Femur uptake): 0.67 ± 0.14 %ID/g
- tissue uptake at 1 h ([1]; in vivo, Heart uptake): 1.54 ± 0.78 %ID/g
- tissue uptake at 4 h ([1]; in vivo, Heart uptake): 0.66 ± 0.14 %ID/g
- tissue uptake at 1 h ([1]; in vivo, Intestines uptake): 1.26 ± 0.52 %ID/g
- tissue uptake at 4 h ([1]; in vivo, Intestines uptake): 1.41 ± 0.37 %ID/g
- tissue uptake at 1 h ([1]; in vivo, Kidneys uptake): 36 ± 5.96 %ID/g
- tissue uptake at 4 h ([1]; in vivo, Kidneys uptake): 37.6 ± 3.44 %ID/g
- tissue uptake at 1 h ([1]; in vivo, Liver uptake): 1.82 ± 0.63 %ID/g
- tissue uptake at 4 h ([1]; in vivo, Liver uptake): 1.43 ± 0.19 %ID/g
- tissue uptake at 1 h ([1]; in vivo, Lungs uptake): 3 ± 0.77 %ID/g
- tissue uptake at 4 h ([1]; in vivo, Lungs uptake): 1.21 ± 0.24 %ID/g
- tissue uptake at 1 h ([1]; in vivo, Muscle uptake): 0.56 ± 0.22 %ID/g
- tissue uptake at 4 h ([1]; in vivo, Muscle uptake): 0.25 ± 0.06 %ID/g
- tissue uptake at 1 h ([1]; in vivo, Pancreas uptake): 1.49 ± 0.71 %ID/g
- tissue uptake at 4 h ([1]; in vivo, Pancreas uptake): 1.24 ± 0.44 %ID/g
- tissue uptake at 1 h ([1]; in vivo, Spleen uptake): 1.73 ± 0.85 %ID/g
- tissue uptake at 4 h ([1]; in vivo, Spleen uptake): 1.06 ± 0.25 %ID/g
- tissue uptake at 1 h ([1]; in vivo, Stomach uptake): 0.8 ± 0.17 %ID/g
- tissue uptake at 4 h ([1]; in vivo, Stomach uptake): 0.5 ± 0.08 %ID/g
- tissue uptake at 1 h ([1]; wtHEK293 tumor (Tu-), 1 h pi, iv 10 pmol total peptide, mean ± sd, n = 4, read-out: Tu- (wtHEK293 tumor) uptake): 1.45 ± 0.27 %ID/g
- tissue uptake at 4 h ([1]; wtHEK293 tumor (Tu-), 4 h pi, iv 10 pmol total peptide, mean ± sd, n = 4, read-out: Tu- (wtHEK293 tumor) uptake): 1.13 ± 0.31 %ID/g
- total cell uptake (membrane bound + internalized) (HEK293-SST2R cells): 2.51 ± 0.36%

- IC50 (human SST2R): 1.24 ± 0.2 nM
Compound: C[C@@H](O)[C@@H]1NC(=O)[C@H](CCCCN)NC(=O)[C@@H](Cc2ccc(NC(N)=O)cc2)NC(=O)[C@H](Cc2ccncc2)NC(=O)[C@H](NC(=O)[C@H](Cc2ccc(Cl)cc2)NC(=O)CCCCC2(N(C)CC(=O)O)CN(CC(=O)O)CCN(CC(=O)O)C2)CSSC[C@@H](C(=O)N[C@H](Cc2ccc(O)cc2)C(N)=O)NC1=O [DATA^5m-LM4] (X1-[Phe(4-Cl)][dC][4Pal][dPhe(4-NHCONH2)]KTC[dY]-NH2; disulfide 2-7)
